The assay concerns the target Xanthomonas campestris pv. campestris RpfB with an N-terminal hexahistidine tag (Xanthomonas campestris pv. campestris 8004). Briefly: SEC.

Where “and” joins values, the source holds several entries; their conditions need not be identical. Equal entries are not always repeated.

For the substance “Xanthomonas campestris pv. campestris RpfB with an N-terminal hexahistidine tag (enzyme)”, the stoichiometry N is 3 and 6.

Source of the values: article PMC4114240.
